Test results reported in US6348311B1, “ATM kinase modulation for screening and therapies” (St. Jude Childre's Research Hospital, priority 1999, dated 2002).
Where no end group is shown, it is not given here.

Tests used:
Type in all cases: biochemical
ATR = biological target: T1, ATR (Homo sapiens, UniProt Q13535); assay: In vitro kinase assay, ATR with GST-peptide / GST-fusion substrates; conditions: GST-peptide substrate; relative to the p53ser15 site
T1 construct: made in house; host or cells: 293T cells, transient transfection with pBJF-FRPwt, anti-FLAG M2 immunoprecipitate
Method: (§1) FIGS. 1A, 1B, and 1C. Phosphorylation of GST-p53 mutant peptides (amino acids 9-21) by ATM, ATR, and DNA-PK in vitro. In vitro kinase assays with immunoprecipitated, transfected flag-tagged ATM (A) or ATR (B) or purified DNA-PK (C) were performed with GST-p53 peptides containing the amino acid substitutions indicated. The amount of 32P-labeled GST-peptides was quantitated with a PhosphorImager and was normalized for each of the kinases to the level of phosphorylation of wild-type GST-p53.
(§2) FIGS. 2A, 2B, and 2C. Phosphorylation of candidate targets of by ATM, ATR and DNA-PK in vitro. GST-peptides containing the putative target sequences were used as substrates for the kinase assay.
Transfection and Kinase Activity Assays. 293T cells were transiently transfected with 10 μg of either pcDNA-FLAG-ATMwt, pcDNA-FLAG-ATMkd, pBJF-FRPwt or pBJF-FRPkd (Cliby et al., EMBO J., 17:159, 1998) using calcium phosphate and harvested two days later. Cells were lysed through sonication in TGN buffer [50 mM Tris (pH 7.5), 50 mM glycerophosphate, 150 mM NaCl, 10% glycerol, 1% Tween 20, 1 mM NaF, 1 mM NaVO4, 1 mM PMSF, […] Pepstatin A, 5 μg/ml leupeptin, 10 μg/ml Aprotinin and 1 mM DTT] as described (Brunn et al., Science, 277:99-101,1997). After centrifugation at 13,000 ×g, 2 mg of extract were incubated with mouse IgG and protein A/G sepharose beads (Calbiochem). FLAG-tagged proteins were then immunoprecipitated with anti-FLAG M2 monoclonal antibody (Eastman Kodak Company) and protein A/G sepharose beads. Immunoprecipitates were washed twice with TGN buffer, once with 100 mM Tris (pH 7.5) plus 0.5 M LiCl, and twice with kinase buffer [10 mM Hepes (pH 7.5), 50 mM glycerophosphate, 50 mM NaCl, 10 mM MgCl2, 10 mM MnCl2, 5 μM ATP, and 1 mM DTT]. Kinase reactions were initiated by resuspending washed beads in 30 μl of kinase buffer containing 10 μCi [γ-^32P]ATP and 1 μg GSTp531-101 and incubated for 30 minutes at 30° C. Proteins were electrophoretically separated by SDS-polyacrylamide gel electrophoresis, transferred to nitrocellulose, and analyzed on a PhosphorImager. FLAG-tagged proteins and GSTp531-101 were subjected to immunoblotting with either anti-FLAG M2 antibody or monoclonal antibodies directed towards the NH2-terminus of p53 (Ab-2 and Ab-6, Calbiochem) as described (Siliciano et al., Genes Dev., 11:3471, 1997).
Phosphorylation of Ser^15 of p53 by ATM and ATR/FRP1 in vitro. […] Proteins from each reaction were separated by SDS polyacrylamide gel electrophoresis (7% gel), transferred to nitrocellulose, and analyzed either on a PhosphorImager or by immunoblotting. Amounts of FLAG-tagged ATM or ATR in each kinase reaction were measured by immunoblotting with anti-FLAG M2 (top panel) and amount of [γ^32P]phosphate incorporated into ATM or ATR during the reaction (lower panel). […] An upper immunoreactive band represents phosphorylated GSTp53 fusion protein. The same exposures were used for ATM, ATR/FRP1 and corresponding substrate proteins.
(§3) Plasmids and GST-fusion protein production. For GST fusion peptide expression vectors, complementary oligonucleotides encoding desired peptides (14 amino acids) were cloned into the BamHI/SmaI site of pGEX-2T (Pharmacia). The constructs were confirmed by restriction enzyme digests and DNA sequencing. To construct the larger GST-p95 (327-391) protein fragment, p95 DNA encoding amino acids 327-391 was amplified by PCR with Pfu polymerase using the following primers: 5′ sense,
In vitro kinase assays and immunoprecipitation. […] Cleared supernatants were immunoprecipitated with anti-Flag M2 antibody and protein A/G agarose, the beads were washed with TGN buffer followed by TGN buffer plus 0.5 M LiCl, and two washes with kinase buffer [20 mM HEPES (pH 7.5), 50 mM NaCl, 10 mM MgCl2, 1 mM dithiothreitol (DTT) and 10 mM MnCl2]. […] ATP and […] of GST-fusion substrate (GST-p53:1-101), in varying concentration of Mn^2+. […]

DNA-PK = DNA-PK (Homo sapiens, UniProt P78527); assay: In vitro kinase assay, purified DNA-PK with GST-peptide / GST-fusion substrates; conditions: for Relative Phosphorylation (%) DNA-PK: GST-peptide substrate, relative to the p53ser15 site
Method: as §1, §2, §3
In vitro kinase assays and immunoprecipitation. […] Cleared supernatants were immunoprecipitated with anti-Flag M2 antibody and protein A/G agarose, the beads were washed with TGN buffer followed by TGN buffer plus 0.5 M LiCl, and two washes with kinase buffer [20 mM HEPES (pH 7.5), 50 mM NaCl, 10 mM MgCl2, 1 mM dithiothreitol (DTT) and 10 mM MnCl2]. […] ATP and […] of GST-fusion substrate (GST-p53:1-101), in varying concentration of Mn^2+. The kinase reaction was conducted at 30° C. for 20 min and stopped by the addition of SDS-PAGE loading buffer. Proteins were separated on SDS-polyacrylamide gel electrophoresis (SDS-PAGE) and transferred to nitrocellulose. Radiolabeled proteins were visualized and quantitated on a Phosphorimager (Molecular Dynamics). Use of equivalent amounts of flag-tagged ATM or ATR in the different lanes was confirmed by immunoblotting with anti-flag antibody. In some reactions, either supercoiled DNA (pBluescript II KS, Stratagene) or linearized DNA (pBluescript II KS cut with EcoR1) was added ([…]). For endogenous ATM kinase reactions, endogenous ATM was immunoprecipitated from GM0536 lymphhoblasts with ATM monoclonal antibody (D16.11) in M buffer (PBS, 10% glycerol, 0.2% Tween 20, 0.3% NP-40, 1 mM NaF, 1 mM Na3VO4, 1 mM PMSF, 1x protease inhibitor mixture]. After washing with M buffer and kinase buffer, in vitro kinase reactions were carried out according to procedures described above. The DNA-PK in vitro kinase reaction was performed as previously described (Gottlieb and Jackson, 1993), using 20 ng each of DNA-PKcs or DNA-PK (20 ng DNA-PKcs premixed with 20 ng Ku 70/80).

ATM kinase = biological target: T2, ATM kinase (Homo sapiens, UniProt Q13315); assay: In vitro kinase assay, ATM with GST-peptide / GST-fusion substrates; conditions: for Relative Phosphorylation (%) ATM: GST-peptide substrate, relative to the p53ser15 site;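 for all read-outs here: immunoprecipitated ATM incubated with [γ-32P]ATP at 30 °C for 20 min, substrates resolved by SDS-PAGE and radiolabel incorporation quantified by PhosphorImager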
T2 construct: The full-length cDNA encoding NH2-terminal, FLAG-tagged wild-type ATM; made in house; host or cells: 293T cells, transient transfection with pcDNA-FLAG-ATMwt, anti-FLAG M2 immunoprecipitate on beads

[1] = GST-conjugated 14 amino acid peptides

T2 sequence (Q13315 whole entry, the tested form may be a part): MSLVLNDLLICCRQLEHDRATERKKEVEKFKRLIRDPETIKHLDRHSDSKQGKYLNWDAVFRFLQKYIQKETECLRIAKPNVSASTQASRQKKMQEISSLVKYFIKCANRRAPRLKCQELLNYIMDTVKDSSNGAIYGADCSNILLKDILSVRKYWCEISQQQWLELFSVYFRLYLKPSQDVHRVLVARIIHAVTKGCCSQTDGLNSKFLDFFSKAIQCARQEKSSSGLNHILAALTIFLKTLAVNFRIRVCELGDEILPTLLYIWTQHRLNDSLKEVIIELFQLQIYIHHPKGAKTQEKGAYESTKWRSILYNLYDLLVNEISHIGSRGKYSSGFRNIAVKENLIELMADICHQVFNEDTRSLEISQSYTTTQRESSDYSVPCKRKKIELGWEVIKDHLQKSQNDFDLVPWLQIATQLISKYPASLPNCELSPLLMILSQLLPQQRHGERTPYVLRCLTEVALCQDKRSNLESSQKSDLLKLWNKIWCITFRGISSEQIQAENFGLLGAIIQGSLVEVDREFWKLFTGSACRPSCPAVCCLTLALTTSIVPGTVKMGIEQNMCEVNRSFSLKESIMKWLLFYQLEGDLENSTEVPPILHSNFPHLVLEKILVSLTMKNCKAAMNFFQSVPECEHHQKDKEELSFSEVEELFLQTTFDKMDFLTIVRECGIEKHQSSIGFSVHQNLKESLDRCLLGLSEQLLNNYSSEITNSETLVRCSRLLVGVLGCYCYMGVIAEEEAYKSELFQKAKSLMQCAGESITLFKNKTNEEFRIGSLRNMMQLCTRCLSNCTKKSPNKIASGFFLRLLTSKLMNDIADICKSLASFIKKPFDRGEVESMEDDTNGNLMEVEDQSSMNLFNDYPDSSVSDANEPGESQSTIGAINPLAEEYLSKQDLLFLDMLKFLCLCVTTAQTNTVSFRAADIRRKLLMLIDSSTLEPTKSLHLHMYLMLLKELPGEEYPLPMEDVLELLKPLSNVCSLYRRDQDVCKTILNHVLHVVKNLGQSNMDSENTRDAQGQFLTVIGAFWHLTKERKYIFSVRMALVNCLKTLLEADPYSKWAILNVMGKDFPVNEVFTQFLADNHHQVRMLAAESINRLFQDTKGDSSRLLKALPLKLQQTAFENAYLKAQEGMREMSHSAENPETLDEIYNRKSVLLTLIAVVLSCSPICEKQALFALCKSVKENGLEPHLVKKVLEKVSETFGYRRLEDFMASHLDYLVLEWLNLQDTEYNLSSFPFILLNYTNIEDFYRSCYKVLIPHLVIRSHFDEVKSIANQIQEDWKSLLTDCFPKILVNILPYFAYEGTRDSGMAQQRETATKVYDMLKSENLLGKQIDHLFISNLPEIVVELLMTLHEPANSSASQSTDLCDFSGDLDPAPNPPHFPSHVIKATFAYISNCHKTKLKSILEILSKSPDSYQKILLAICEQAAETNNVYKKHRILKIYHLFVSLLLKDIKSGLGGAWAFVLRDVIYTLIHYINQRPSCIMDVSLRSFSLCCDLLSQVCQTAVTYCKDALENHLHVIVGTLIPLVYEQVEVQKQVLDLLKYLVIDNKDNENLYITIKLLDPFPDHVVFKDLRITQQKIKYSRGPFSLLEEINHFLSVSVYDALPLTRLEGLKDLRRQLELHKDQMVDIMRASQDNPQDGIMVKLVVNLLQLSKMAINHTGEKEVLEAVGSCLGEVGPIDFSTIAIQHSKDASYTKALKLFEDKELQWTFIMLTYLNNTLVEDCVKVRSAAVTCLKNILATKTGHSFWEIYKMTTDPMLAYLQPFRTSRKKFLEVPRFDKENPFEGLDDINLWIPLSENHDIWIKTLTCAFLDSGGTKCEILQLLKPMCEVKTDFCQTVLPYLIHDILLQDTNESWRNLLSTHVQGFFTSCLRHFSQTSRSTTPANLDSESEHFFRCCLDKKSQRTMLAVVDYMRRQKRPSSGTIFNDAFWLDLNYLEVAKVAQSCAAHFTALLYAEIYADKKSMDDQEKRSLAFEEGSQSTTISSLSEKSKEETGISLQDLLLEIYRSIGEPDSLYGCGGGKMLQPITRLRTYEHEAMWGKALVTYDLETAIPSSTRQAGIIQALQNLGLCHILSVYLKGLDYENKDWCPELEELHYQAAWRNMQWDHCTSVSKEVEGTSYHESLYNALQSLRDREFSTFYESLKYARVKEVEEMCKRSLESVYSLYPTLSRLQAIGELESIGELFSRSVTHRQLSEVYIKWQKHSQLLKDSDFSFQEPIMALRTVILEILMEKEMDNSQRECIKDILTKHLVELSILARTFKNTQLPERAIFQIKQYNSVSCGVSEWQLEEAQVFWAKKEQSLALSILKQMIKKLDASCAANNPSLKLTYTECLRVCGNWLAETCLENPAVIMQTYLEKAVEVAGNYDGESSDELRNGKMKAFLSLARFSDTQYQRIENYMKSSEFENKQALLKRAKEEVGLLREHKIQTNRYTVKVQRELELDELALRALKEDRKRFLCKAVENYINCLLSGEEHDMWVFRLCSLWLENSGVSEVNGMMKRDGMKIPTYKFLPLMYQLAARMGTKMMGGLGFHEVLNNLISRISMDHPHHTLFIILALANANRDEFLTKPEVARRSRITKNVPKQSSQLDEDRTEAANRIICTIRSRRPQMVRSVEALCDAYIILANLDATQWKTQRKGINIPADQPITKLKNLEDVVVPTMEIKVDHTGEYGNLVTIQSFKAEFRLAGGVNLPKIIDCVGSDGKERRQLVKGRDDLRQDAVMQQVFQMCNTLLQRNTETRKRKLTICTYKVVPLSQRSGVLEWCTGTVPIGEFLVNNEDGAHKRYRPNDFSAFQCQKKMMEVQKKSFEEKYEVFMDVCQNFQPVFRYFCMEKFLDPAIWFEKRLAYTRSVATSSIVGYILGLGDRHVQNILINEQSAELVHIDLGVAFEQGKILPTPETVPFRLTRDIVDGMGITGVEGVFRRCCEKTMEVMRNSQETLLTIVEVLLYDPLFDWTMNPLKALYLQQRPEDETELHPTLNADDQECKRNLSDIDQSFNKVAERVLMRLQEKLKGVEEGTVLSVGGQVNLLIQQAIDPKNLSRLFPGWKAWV

Relative Phosphorylation (%) ATR (ATR) [%]	Relative Phosphorylation (%) DNA-PK (DNA-PK) [%]	Relative Phosphorylation (%) ATM (ATM kinase) [%]	phosphorylation of GST-peptide substrate by DNA-PK (in words) (DNA-PK; [1])	phosphorylation of GST-peptide substrate by ATM (in words) (ATM kinase; [1])	Substance
15	<1	<1			p115-RhoGEF: GST-peptide RLRPLLSQLGGNSV (SEQ ID NO:27), S899 (not fully specified (N-terminus); also: GST fusion; listed as Homo sapiens)
5	<1	<1			RPA34kD (SQ1): GST-peptide FPAPAPSQAEKKSR (SEQ ID NO:40), S33 (not fully specified (N-terminus); also: GST fusion; listed as Homo sapiens)
150	<1	<1			PI-3K: GST-peptide DLLMYLSQLVQALK (SEQ ID NO:26), S397 (also: GST fusion)
22	2	5			β-ADAPTIN: GST-peptide CRAPEVSQHVYQAY (SEQ ID NO:28), S935 (not fully specified (N-terminus); also: GST fusion; listed as Homo sapiens)
36	48	5	phosphorylated by DNA-PKcs	not by ATM	DNA LIG-IV: GST-peptide DLKLGVSQQTIFSV (SEQ ID NO:39), S132 (also: GST fusion)
145	15	3			DNA 5B: GST-peptide QPEPPVSQSEISEP (SEQ ID NO:38), S72 (also: GST fusion)
55	7	33			ATM S440: GST-peptide PLLMILSQLLPQQR (SEQ ID NO:24), S440 of ATM (also: GST fusion)
30	2	11			p120E4F: GST-peptide APEPPVSQELPCSR (SEQ ID NO:31), S355 (not fully specified (N-terminus); also: GST fusion; listed as Homo sapiens)
31	132	9			p53 S37: GST-peptide VLSPLPSQAMDDLM (SEQ ID NO:8), p53 serine 37 site (not fully specified (N-terminus); also: GST fusion; listed as Homo sapiens)
22	<1	3			ATM S2761: GST-peptide YKVVPLSQRSGVLE (SEQ ID NO:25), S2761 of ATM (also: GST fusion)
31	45	19			p95: GST-peptide TPGPSLSQGVSVDE (SEQ ID NO:10), S343 (not fully specified (N-terminus); also: GST fusion; listed as Homo sapiens)
73	20	11			CHK1 (SQ2): GST-peptide VQGISFSQPTCPDH (SEQ ID NO:17), S345 (also: GST fusion)
49	14	25			WRN (SQ1): GST-peptide EKAYSSSQPVISAQ (SEQ ID NO:21), S1141 (not fully specified (N-terminus); also: GST fusion; listed as Homo sapiens)
22	44	6			β3A Adaptin: GST-peptide ELKPVLSQG (SEQ ID NO:43), S1092 (not fully specified (N-terminus); also: GST fusion; listed as Homo sapiens)
733	97	81			RAD17 (SQ1): GST-peptide TWSLPLSQDSASEL (SEQ ID NO:18), S646 (not fully specified (N-terminus); also: GST fusion)
17	<1	<1			MRE11 (SQ2): GST-peptide FSVLRFSQKFVDRV (SEQ ID NO:12), S386 (also: GST fusion)
38	6	2			BRCA1 (SQ1): GST-peptide SASLFSSQCSELED (SEQ ID NO:32), S1298 (also: GST fusion)
8	<1	<1			RPA34kD (SQ3): GST-peptide TGNVEISQVTIVGI (SEQ ID NO:42), S72 (not fully specified (N-terminus); also: GST fusion; listed as Homo sapiens)
48	10	20			MRE11 (SQ1): GST-peptide QQLFYISQPGSSVV (SEQ ID NO:11), S264 (also: GST fusion)
